# Values quoted from earlier work, collected in publication PMC10653114.
# Columns and labels:
# [1] = molecular target: Lys46 (UniProt position 81, KRNNFKSAEDC); assay: NMR (only per the titles of cited refs 78 and 79; not given); settings: 308 K; Conc. 0.0 (unit not given; Na+/Cl– counter-ions in the simulation)
# [2] = molecular target: Lys15 (UniProt position 50, YTGPCKARIIR); assay: as above; settings: 308 K; Conc. 0.0 (unit not given; Na+/Cl– counter-ions in the simulation)
# [3] = molecular target: Lys26 (UniProt position 61, YFYNAKAGLCQ); assay: as above; settings: 308 K; Conc. 0.0 (unit not given; Na+/Cl– counter-ions in the simulation)
# [4] = molecular target: Glu49 (UniProt position 84, NFKSAEDCMRT); assay: as above; settings: 308 K; Conc. 0.0 (unit not given; Na+/Cl– counter-ions in the simulation)
# [5] = molecular target: Asp50 (UniProt position 85, FKSAEDCMRTC); assay: as above; settings: 308 K; Conc. 0.0 (unit not given; Na+/Cl– counter-ions in the simulation)
# [6] = molecular target: Lys41 (UniProt position 76, GGCRAKRNNFK); assay: as above; settings: 308 K; Conc. 0.0 (unit not given; Na+/Cl– counter-ions in the simulation)
# [7] = molecular target: Asp3 (UniProt position 38, KAQRPDFCLEP); assay: as above; settings: 308 K; Conc. 0.0 (unit not given; Na+/Cl– counter-ions in the simulation)
# [8] = molecular target: Glu7 (UniProt position 42, PDFCLEPPYTG); assay: as above; settings: 308 K; Conc. 0.0 (unit not given; Na+/Cl– counter-ions in the simulation)
# [9] = molecular target: Lys25 (UniProt position 29, PNQLSKEELKL); settings: 300 K; Conc. 0.00 (unit not given; Na+/Cl–); apo (Ca2+-free), inferred from the apo structure 1CLB used
# [10] = molecular target: Lys41 (UniProt position 45, FPSLLKGPSTL); settings: 300 K; Conc. 0.00 (unit not given; Na+/Cl–); apo (Ca2+-free), inferred from the apo structure 1CLB used
# [11] = molecular target: Lys12 (UniProt position 16, KGIFEKYAAKE); settings: 300 K; Conc. 0.00 (unit not given; Na+/Cl–); apo (Ca2+-free), inferred from the apo structure 1CLB used
# [12] = molecular target: Lys7 (UniProt position 11, SPEELKGIFEK); settings: 300 K; Conc. 0.00 (unit not given; Na+/Cl–); apo (Ca2+-free), inferred from the apo structure 1CLB used
# [13] = molecular target: Lys72 (UniProt position 76, QVLVKKISQ--); settings: 300 K; Conc. 0.00 (unit not given; Na+/Cl–); apo (Ca2+-free), inferred from the apo structure 1CLB used
# [14] = molecular target: Lys16 (UniProt position 20, EKYAAKEGDPN); settings: 300 K; Conc. 0.00 (unit not given; Na+/Cl–); apo (Ca2+-free), inferred from the apo structure 1CLB used
# [15] = molecular target: Lys71 (UniProt position 75, FQVLVKKISQ-); settings: 300 K; Conc. 0.00 (unit not given; Na+/Cl–); apo (Ca2+-free), inferred from the apo structure 1CLB used
# [16] = molecular target: Lys55 (UniProt position 59, FEELDKNGDGE); settings: 300 K; Conc. 0.00 (unit not given; Na+/Cl–); apo (Ca2+-free), inferred from the apo structure 1CLB used
# [17] = molecular target: Lys29 (UniProt position 33, SKEELKLLLQT); settings: 300 K; Conc. 0.00 (unit not given; Na+/Cl–); apo (Ca2+-free), inferred from the apo structure 1CLB used
# [18] = molecular target: Lys61 (UniProt position 81, CNTMIKKIVTL); assay: not stated (the title of ref 83 mentions NMR pH-dependent chemical shifts); settings: 313 K; Conc. 0.0 (unit not given; Na+/Cl–)
# [19] = molecular target: Lys94 (UniProt position 114, NGFSNKCSSL-); assay: as above; settings: 313 K; Conc. 0.0 (unit not given; Na+/Cl–)
# [20] = molecular target: Asp30 (UniProt position 50, NQCSTDSGYSM); assay: as above; settings: 313 K; Conc. 0.0 (unit not given; Na+/Cl–)
# [21] = molecular target: Asp72 (UniProt position 92, NPPNCDLTVPT); assay: as above; settings: 313 K; Conc. 0.0 (unit not given; Na+/Cl–)
# [22] = molecular target: Asp21 (UniProt position 41, VSILSDASFNQ); assay: as above; settings: 313 K; Conc. 0.0 (unit not given; Na+/Cl–)
# [23] = molecular target: Asp77 (UniProt position 159, IEVEFDKGQRT); settings: 298 K; Conc. 0.10 (unit not given; K+/Cl–)
# [24] = molecular target: Glu43 (UniProt position 125, LVDTPETKHPK); settings: 298 K; Conc. 0.10 (unit not given; K+/Cl–)
# [25] = molecular target: Glu73 (UniProt position 155, NAKKIEVEFDK); settings: 298 K; Conc. 0.10 (unit not given; K+/Cl–)
# [26] = molecular target: Asp19 (UniProt position 101, LIKAIDGDTVK); settings: 298 K; Conc. 0.10 (unit not given; K+/Cl–)
# [27] = molecular target: Asp83 (UniProt position 165, KGQRTDKYGRG); settings: 298 K; Conc. 0.10 (unit not given; K+/Cl–)
# [28] = molecular target: Glu75 (UniProt position 157, KKIEVEFDKGQ); settings: 298 K; Conc. 0.10 (unit not given; K+/Cl–)
# [29] = molecular target: Glu135 (UniProt position 217, AQAKKEKLNIW); settings: 298 K; Conc. 0.10 (unit not given; K+/Cl–)
# [30] = molecular target: Asp21 (UniProt position 103, KAIDGDTVKLM); settings: 298 K; Conc. 0.10 (unit not given; K+/Cl–)
# [31] = molecular target: Glu142 (UniProt position 224, LNIWSEDNADS); settings: 298 K; Conc. 0.10 (unit not given; K+/Cl–)
# [32] = molecular target: Glu129 (UniProt position 211, LLRKAEAQAKK); settings: 298 K; Conc. 0.10 (unit not given; K+/Cl–)
# [33] = molecular target: Asp143 (UniProt position 225, NIWSEDNADSG); settings: 298 K; Conc. 0.10 (unit not given; K+/Cl–)
# [34] = molecular target: Asp40 (UniProt position 122, RLLLVDTPETK); settings: 298 K; Conc. 0.10 (unit not given; K+/Cl–)
# [35] = molecular target: Glu10 (UniProt position 92, KKLHKEPATLI); settings: 298 K; Conc. 0.10 (unit not given; K+/Cl–)
# [36] = molecular target: Asp146 (UniProt position 228, SEDNADSGQ--); settings: 298 K; Conc. 0.10 (unit not given; K+/Cl–)
# [37] = molecular target: Glu122 (UniProt position 204, GNNTHEQLLRK); settings: 298 K; Conc. 0.10 (unit not given; K+/Cl–)
# [38] = molecular target: Glu101 (UniProt position 183, GKMVNEALVRQ); settings: 298 K; Conc. 0.10 (unit not given; K+/Cl–)
# [39] = molecular target: Glu57 (UniProt position 139, EKYGPEASAFT); settings: 298 K; Conc. 0.10 (unit not given; K+/Cl–)
# [40] = molecular target: Glu67 (UniProt position 149, TKKMVENAKKI); settings: 298 K; Conc. 0.10 (unit not given; K+/Cl–)
# [41] = molecular target: Glu52 (UniProt position 134, PKKFNEKYGPE); settings: 298 K; Conc. 0.10 (unit not given; K+/Cl–)
# [42] = molecular target: Asp95 (UniProt position 177, AYIYADGKMVN); settings: 298 K; Conc. 0.10 (unit not given; K+/Cl–)
# [43] = molecular target: Asp43 (UniProt position 417, WTLTFDFPSGQ); settings: 298 K; Conc. 0.10 (unit not given; K+/Cl–)
substance,measurement,setting,value
Bovine pancreatic trypsin inhibitor (BPTI) (Bos taurus),pKa,[1],10.30
same,pKa,[2],10.60
same,pKa,[3],10.60
same,pKa,[4],3.75 ± 0.05
same,pKa,[5],3.20 ± 0.20
same,pKa,[6],11.20
same,pKa,[7],3.25 ± 0.15
same,pKa,[8],3.65 ± 0.05
Calbindin D9k (apo) (Bos taurus),pKa,[9],13.21
same,pKa,[10],11.02
same,pKa,[11],12.02
same,pKa,[12],12.53
same,pKa,[13],11.95
same,pKa,[14],11.90
same,pKa,[15],11.22
same,pKa,[16],12.95
same,pKa,[17],11.81
Beta-cryptogein (beta-elicitin) (Phytophthora cryptogea),pKa,[18],10.1
same,pKa,[19],9.4
same,pKa,[20],2.51 ± 0.09
same,pKa,[21],2.61 ± 0.15
same,pKa,[22],2.49 ± 0.05
"Staphylococcal nuclease, Delta+PHS variant (Staphylococcus aureus; G50F;V51N;P117G;H124L;S128A;del44-49)",pKa,[23],<2.2
same,pKa,[24],4.32 ± 0.04
same,pKa,[25],3.31 ± 0.01
same,pKa,[26],2.21 ± 0.07
same,pKa,[27],<2.2
same,pKa,[28],3.26 ± 0.05
same,pKa,[29],3.76 ± 0.08
same,pKa,[30],6.53 ± 0.02
same,pKa,[31],4.49 ± 0.04
same,pKa,[32],3.75 ± 0.09
same,pKa,[33],3.8 ± 0.1
same,pKa,[34],3.87 ± 0.09
same,pKa,[35],2.82 ± 0.09
same,pKa,[36],3.86 ± 0.05
same,pKa,[37],3.89 ± 0.09
same,pKa,[38],3.81 ± 0.1
same,pKa,[39],3.49 ± 0.09
same,pKa,[40],3.76 ± 0.07
same,pKa,[41],3.93 ± 0.08
same,pKa,[42],2.16 ± 0.07
"Highly charge-depleted protein (PDB 6QFS), S43D/T66H variant (Cellulomonas fimi (parent domain; not stated in the article); S43D;T66H (on the 6QFS charge-depleted background; background substitutions not stated))",pKa,[43],4.32 ± 0.02
"Highly charge-depleted protein (PDB 6QFS), S43D variant (Cellulomonas fimi (parent domain; not stated in the article); S43D (on the 6QFS charge-depleted background; background substitutions not stated))",pKa,[43],4.37 ± 0.01
